Article PMC10920880, “RNA compaction and iterative scanning for small RNA targets by the Hfq chaperone”

What was measured:
Hfq:R16A (rim mutant) [1] = molecular target: T1, Hfq:R16A (rim mutant) (Escherichia coli K12, UniProt P0A6X3 1-102, R16A); test: smFRET; sRNA (N13)-Hfq; half as much time on distant site as WT; smFRET: 10 mM Tris-HCl pH 7.5, 50 mM NaCl, 50 mM KCl, 4 mM Trolox, 0.01% Nikkol, 0.8% glucose, RNasin, oxygen scavenger; EMSA: 1x TNK, 5% glycerol, 15 min RT, native 8% PAGE 1x TBE 4 C; conditions: protein: recombinant; tags: none (untagged); chain copies: 6; label: tether 5' biotin, 3' Cy5; RNA 3' extension paired to DNA tether; 5' hairpin
[2] = molecular target: Hfq:Y25D (distal face mutant) (Escherichia coli K12, UniProt P0A6X3 1-102, Y25D); test: smFRET; 5 nM Y25D, compaction E~0.75; smFRET: 10 mM Tris-HCl pH 7.5, 50 mM NaCl, 50 mM KCl, 4 mM Trolox, 0.01% Nikkol, 0.8% glucose, RNasin, oxygen scavenger; EMSA: 1x TNK, 5% glycerol, 15 min RT, native 8% PAGE 1x TBE 4 C; conditions: protein: recombinant; tags: none (untagged); chain copies: 6; label: internal Cy5; tether 5' biotin, 3' Cy3 (unlabeled tether for sRNA assays); RNA 3' extension paired to DNA tether; 5' hairpin
[3] = molecular target: Hfq:TM (triple rim mutant) (Escherichia coli K12, UniProt P0A6X3 1-102, R16A;R17A;R19D); test: smFRET; 5 nM TM, less compaction E~0.37; smFRET: 10 mM Tris-HCl pH 7.5, 50 mM NaCl, 50 mM KCl, 4 mM Trolox, 0.01% Nikkol, 0.8% glucose, RNasin, oxygen scavenger; EMSA: 1x TNK, 5% glycerol, 15 min RT, native 8% PAGE 1x TBE 4 C; conditions: protein: recombinant; tags: none (untagged); chain copies: 6; label: internal Cy5; tether 5' biotin, 3' Cy3 (unlabeled tether for sRNA assays); RNA 3' extension paired to DNA tether; 5' hairpin
Hfq:R16A (rim mutant) [4] = molecular target: T1, Hfq:R16A (rim mutant); test: smFRET; 5 nM R16A, less compaction E~0.43; smFRET: 10 mM Tris-HCl pH 7.5, 50 mM NaCl, 50 mM KCl, 4 mM Trolox, 0.01% Nikkol, 0.8% glucose, RNasin, oxygen scavenger; EMSA: 1x TNK, 5% glycerol, 15 min RT, native 8% PAGE 1x TBE 4 C; conditions: protein: recombinant; tags: none (untagged); chain copies: 6; label: internal Cy5; tether 5' biotin, 3' Cy3 (unlabeled tether for sRNA assays); RNA 3' extension paired to DNA tether; 5' hairpin

B1: (AAC)4-S6-N35-S6 tandem mRNA on DNA tether (mixed)
RNA: GGACUCUAUCGAGUCCAACAACAACAACAGACCUCUCUACCAUCACCUAAACUUUACUCUACCAUCACCAGACCUCGCGCCCAGGACGACACACUUUGGACAGGACACACAGGACACAGG
DNA: CCTGTGTCCTGTGTGTCCTGTCCAAAGTGTGTCGTCC
Hfq:R16A (rim mutant) [1]
  binding result: binds

B2: (AAC)6-Cy5-N35-S6 mRNA on DNA tether (mixed)
RNA: GGACUCUAUCGAGUCCAACAACAACAACAACAACCCCUGCAUCACCUAAACUUUACUCUACCAUCACCAGACCUCGCGCCCAGGACGACACACUUUGGACAGGACACACAGGACACAGG
DNA: CCTGTGTCCTGTGTGTCCTGTCCAAAGTGTGTCGTCC
modifications: internal Cy5 after nt 35
[2]
  binding result: binds
[3]
  binding result: binds
Hfq:R16A (rim mutant) [4]
  binding result: binds
